The values below are quoted from earlier work in article PMC4452390.

This data set addresses EGFR (Homo sapiens) (UniProt P00533).

As to EGF (from UniProt P01133), the Kd is 3 nM.
